Holding throughout (assay type): biochemical
Series [1] is described as follows: HTP screening assay of LeuB variants, 3-IPM. Particulars: 750 μM 3-IPM, 2 mM NAD+, pH 8.0, 25° C.; mean of duplicates. As for the experimental part:
(§1) The evaluation of the LeuB variants is performed in two steps using the high-throughput enzyme assay described below. Initially, all of the variants are screened for activity against a single high concentration of 3-IPM, 3-BM and 3-HM. Following the initial evaluation, detailed kinetic analysis is performed on a select number of variants to determine the maximal rate (kcat), Michaelis-Menten constant (KM), and the catalytic efficiency of the variant enzymes (kcat/KM).
(§2) A suitable spectrophotometric LeuB enzyme assay is adapted into a high-throughput format in 96-well plates for the kinetic evaluation of LeuB and its variants (shown in Table 1) against 3-isopropylmalate (3-IPM), 3-butylmalate (3-BM), and 3-hexylmalate (3-HM). See, for example, Hsu, Y.; Kohlhaw, G. B. “Leucine biosynthesis in Saccharomyces cerevisiae. Purification and characterization of beta-isopropylmalate dehydrogenase,” J. Biol. Chem., 1980, 255:7255-7260. Steady state kinetic parameters (kcat, KM and kcat/KM) for the oxidative decarboxylation of the three substrates by the variants are determined in these experiments.
(§3) The HTP screening assay involves incubating 750 micromoles (μM) of 3-IPM, 1 mM 3-BM or 1 mM 3-HM, with 2 mM nicotinamide adenine dinucleotide (NAD^+) in LeuB assay buffer (50 mM 4-(2-hydroxyethyl) piperazine-1-ethanesulfonic acid (HEPES), pH 8.0, containing 30 mM potassium chloride (KCl) and 5 mM magnesium chloride (MgCl2)) at 25° C. The reaction is started by the addition at 25° C. of working enzyme stock containing from 0.3 microgram (μg) to 1.1 μg of LeuB variant diluted in assay buffer containing 1 mM DTT and 1 milligram per milliliter (mg/mL) bovine serum albumin (BSA). The plate containing the 200 μL of reaction mixture is centrifuged at 2500×g for 15 seconds (sec) and the absorbance change of the reaction mixture is followed spectrophotometrically at 340 nm on a BioTek™ plate reader, pre-equilibrated at 25° C. Initial velocity of the enzyme reaction is calculated from the rate of NADH production at 340 nm and using the extinction coefficient of NADH (6.22 per millimolar per centimeter (mM^−1cm^−1)). The activity of all the variants is normalized with the amount of enzyme present in the reaction mixture and expressed as nanomoles per minute per microgram (nmol·min^−1·μg^−1) (Table 2). Protein concentrations for normalizing the activities are determined using the 660 nm total protein assay kit acquired from Pierce Biotechnology Inc.™, available from Thermo Fisher Scientific, Inc., and using BSA as the standard.

The nature of series [2]: HTP LeuB kinetic assay, oxidative decarboxylation of 3-HM. The conditions noted are these: for increase in efficiency of capturing 3-HM compared with the wild type enzyme: more efficient than wild type LeuB; for Km / kcat: substrate 3-HM, mean ± S.D. As for the experimental part: as §1, §2
(§4) The HTP kinetic assay involves incubating eight varied concentrations, of 3-IPM (from 0 to 1.2 mM) or 3-BM (from 0 to 2 mM) or 3-HM (from 0 to 2 mM), with 2 mM NAD^+ in LeuB assay buffer (50 mM HEPES, pH 8.0, containing 30 mM KCl and 5 mM MgCl2) at 25° C. The reaction is started by adding from 0.008 μg to 0.5 μg of LeuB variant which has been pre-diluted in assay buffer containing 1 mM DTT and 1 mg/mL BSA. The plate containing the 200 μl of reaction mixture is centrifuged at 2500×g for 15 sec and the absorbance change is followed spectrophotometrically at 340 nm on a BioTek™ plate reader maintained at 25° C. Initial velocity of the enzyme reaction is calculated from the rate of NADH production at 340 nm and using the extinction coefficient of NADH (6.22 mM^−1cm^−1). The kinetic parameters (kcat, KM and kcat/KM) of oxidative decarboxylation of 3-alkylmalate are determined by fitting the data to the Michaelis-Menten equation using nonlinear regression performed using the GraphPad Prism™ software. Table 3 lists the kinetic parameters of the wild type and engineered variants against the three substrates. The amount of enzyme in the reaction mixture is determined using the 660 nm total protein assay kit acquired from Pierce Biotechnology Inc.™, using BSA as the standard.

Series [3] is described as follows: HTP screening assay of LeuB variants, 3-HM. Particulars: for Specific activity, 3-HM: 1 mM 3-HM, 2 mM NAD+, pH 8.0, 25° C., mean of duplicates; for activity against 3-HM compared with the wild type enzyme: screening at single high concentration. The protocol: as §1, §2, §3
Series [4] is described as follows: HTP screening assay of LeuB variants, 3-BM. The conditions noted are these: 1 mM 3-BM, 2 mM NAD+, pH 8.0, 25° C.; mean of duplicates. The protocol:
as §1, §2, §3

Series [5] in a line: HTP LeuB kinetic assay, oxidative decarboxylation of 3-BM. The conditions noted are these: substrate 3-BM; mean ± S.D. The protocol:
as §1, §2, §4

A word on the Km: it is the substrate concentration at which the rate is half of its maximum. As usually defined, the kcat is the maximal rate divided by the concentration of active sites.

B1: L96A/V198A: E. coli LeuB variant with Leu-96 and Val-198 both replaced with alanine (protein, UniProt P30125 2-363, looked up, variant L96A V198A)
3-isopropylmalate …: SKNYHIAVLPGDGIGPEVMTQALKVLDAVRNRFAMRITTSHYDVGGAAIDNHGQPLPPATVEGCEQADAVLFGSVGGPKWEHLPPDQQPERGALAPLRKHFKLFSNLRPAKLYQGLEAFCPLRADIAANGFDILCVRELTGGIYFGQPKGREGSGQYEKAFDTEVYHRFEIERIARIAFESARKRRHKVTSIDKANALQSSILWREIVNEIATEYPDVELAHMYIDNATMQLIKDPSQFDVLLCSNLFGDILSDECAMITGSMGMLPSASLNEQGFGLYEPAGGSAPDIAGKNIANPIAQILSLALLLRYSLDADDAACAIERAINRALEEGIRTGDLARGAAAVSTDEMGDIIARYVAEGV
As to B1, the “Specific activity, 3-IPM” value in series [1] turned out to be 0.65 nmol/min/µg. Besides, in series [2], the “increase in efficiency of capturing 3-HM compared with the wild type enzyme” value is 12 fold, the Km amounted to 80 ± 10 µM and the kcat was 159 ± 4 min⁻¹. In series [3], the “Specific activity, 3-HM” value is 3.3 nmol/min/µg and the “activity against 3-HM compared with the wild type enzyme” value is “higher activity than the wild type enzyme”. The “Specific activity, 3-BM” value in series [4] is 1.26 nmol/min/µg.

B2: V198G: E. coli LeuB variant with Val-198 replaced with glycine (protein, UniProt P30125 2-363, looked up, variant V198G)
3-isopropylmalate …: SKNYHIAVLPGDGIGPEVMTQALKVLDAVRNRFAMRITTSHYDVGGAAIDNHGQPLPPATVEGCEQADAVLFGSVGGPKWEHLPPDQQPERGALLPLRKHFKLFSNLRPAKLYQGLEAFCPLRADIAANGFDILCVRELTGGIYFGQPKGREGSGQYEKAFDTEVYHRFEIERIARIAFESARKRRHKVTSIDKANGLQSSILWREIVNEIATEYPDVELAHMYIDNATMQLIKDPSQFDVLLCSNLFGDILSDECAMITGSMGMLPSASLNEQGFGLYEPAGGSAPDIAGKNIANPIAQILSLALLLRYSLDADDAACAIERAINRALEEGIRTGDLARGAAAVSTDEMGDIIARYVAEGV
Turning to B2, in series [1], the “Specific activity, 3-IPM” value was 4.66 nmol/min/µg. Also, in series [3], the “Specific activity, 3-HM” value worked out at 0.5 nmol/min/µg. In series [4], the “Specific activity, 3-BM” value worked out at 1.83 nmol/min/µg.

B3: L96V/V198G: E. coli LeuB variant with Leu-96 replaced with valine and Val-198 with glycine (protein, UniProt P30125 2-363, looked up, variant L96V V198G)
3-isopropylmalate …: SKNYHIAVLPGDGIGPEVMTQALKVLDAVRNRFAMRITTSHYDVGGAAIDNHGQPLPPATVEGCEQADAVLFGSVGGPKWEHLPPDQQPERGALVPLRKHFKLFSNLRPAKLYQGLEAFCPLRADIAANGFDILCVRELTGGIYFGQPKGREGSGQYEKAFDTEVYHRFEIERIARIAFESARKRRHKVTSIDKANGLQSSILWREIVNEIATEYPDVELAHMYIDNATMQLIKDPSQFDVLLCSNLFGDILSDECAMITGSMGMLPSASLNEQGFGLYEPAGGSAPDIAGKNIANPIAQILSLALLLRYSLDADDAACAIERAINRALEEGIRTGDLARGAAAVSTDEMGDIIARYVAEGV
On to B3, for which the “Specific activity, 3-IPM” value in series [1] was found to be 0.05 nmol/min/µg. The “Specific activity, 3-BM” value in series [4] is 0.04 nmol/min/µg.

B4: L96V: E. coli LeuB variant with Leu-96 replaced with valine (protein, UniProt P30125 2-363, looked up, variant L96V)
3-isopropylmalate …: SKNYHIAVLPGDGIGPEVMTQALKVLDAVRNRFAMRITTSHYDVGGAAIDNHGQPLPPATVEGCEQADAVLFGSVGGPKWEHLPPDQQPERGALVPLRKHFKLFSNLRPAKLYQGLEAFCPLRADIAANGFDILCVRELTGGIYFGQPKGREGSGQYEKAFDTEVYHRFEIERIARIAFESARKRRHKVTSIDKANVLQSSILWREIVNEIATEYPDVELAHMYIDNATMQLIKDPSQFDVLLCSNLFGDILSDECAMITGSMGMLPSASLNEQGFGLYEPAGGSAPDIAGKNIANPIAQILSLALLLRYSLDADDAACAIERAINRALEEGIRTGDLARGAAAVSTDEMGDIIARYVAEGV
Take B4: in series [1], the “Specific activity, 3-IPM” value was 1.53 nmol/min/µg.

B5: L96G/V198A: E. coli LeuB variant with Leu-96 replaced with glycine and Val-198 with alanine (protein, UniProt P30125 2-363, looked up, variant L96G V198A)
3-isopropylmalate …: SKNYHIAVLPGDGIGPEVMTQALKVLDAVRNRFAMRITTSHYDVGGAAIDNHGQPLPPATVEGCEQADAVLFGSVGGPKWEHLPPDQQPERGALGPLRKHFKLFSNLRPAKLYQGLEAFCPLRADIAANGFDILCVRELTGGIYFGQPKGREGSGQYEKAFDTEVYHRFEIERIARIAFESARKRRHKVTSIDKANALQSSILWREIVNEIATEYPDVELAHMYIDNATMQLIKDPSQFDVLLCSNLFGDILSDECAMITGSMGMLPSASLNEQGFGLYEPAGGSAPDIAGKNIANPIAQILSLALLLRYSLDADDAACAIERAINRALEEGIRTGDLARGAAAVSTDEMGDIIARYVAEGV
Consider B5, for which, in series [5], the Km stood at 3.3 ± 0.4 mM and the kcat was 268 ± 21 min⁻¹. For the same molecule, in series [2], the “increase in efficiency of capturing 3-HM compared with the wild type enzyme” value is reported as 102 fold, the Km amounted to 50 ± 0.5 µM and the kcat was determined as 874 ± 23 min⁻¹. For the same molecule, in series [3], the “Specific activity, 3-HM” value was found to be 20.4 nmol/min/µg and the “activity against 3-HM compared with the wild type enzyme” value is given as “higher activity than the wild type enzyme”. Also, in series [4], the “Specific activity, 3-BM” value turned out to be 1.49 nmol/min/µg.

B6: L96G/V198G: E. coli LeuB variant with Leu-96 and Val-198 both replaced with glycine (protein, UniProt P30125 2-363, looked up, variant L96G V198G)
3-isopropylmalate …: SKNYHIAVLPGDGIGPEVMTQALKVLDAVRNRFAMRITTSHYDVGGAAIDNHGQPLPPATVEGCEQADAVLFGSVGGPKWEHLPPDQQPERGALGPLRKHFKLFSNLRPAKLYQGLEAFCPLRADIAANGFDILCVRELTGGIYFGQPKGREGSGQYEKAFDTEVYHRFEIERIARIAFESARKRRHKVTSIDKANGLQSSILWREIVNEIATEYPDVELAHMYIDNATMQLIKDPSQFDVLLCSNLFGDILSDECAMITGSMGMLPSASLNEQGFGLYEPAGGSAPDIAGKNIANPIAQILSLALLLRYSLDADDAACAIERAINRALEEGIRTGDLARGAAAVSTDEMGDIIARYVAEGV
Take B6: the “Specific activity, 3-IPM” value in series [1] is 0.02 nmol/min/µg. Also, in series [3], the “Specific activity, 3-HM” value stood at 3.6 nmol/min/µg and the “activity against 3-HM compared with the wild type enzyme” value is “higher activity than the wild type enzyme”. Also, the “Specific activity, 3-BM” value in series [4] is 0.08 nmol/min/µg.
